The assay deals with TNC-scTNFR2 (trimerization domain of human tenascin C fused to the N-terminus of the TNFR2-selective single-chain TNF) (human) (UniProt P24821). Briefly: SEC; HPLC-SEC, BioSep-SEC-S2000 7.8x300 column, PBS, 0.5 ml/min, 50 µl sample at 0.1 to 0.5 mg/ml, against standard proteins; oligomerization state under native conditions. (Size exclusion chromatography separates by hydrodynamic size, large species first.)

What is called stoichiometry N is a count of units in the complex or per binding partner.

For “TNC-scTNFR2 (trimerization domain of human tenascin C fused to the N-terminus of the TNFR2-selective single-chain TNF) (from UniProt P24821 110-139) (ligand)”, the stoichiometry N turned out to be 3.

The values are drawn from publication PMC3215731.
